{"source": "paper PMC9768450", "assay_in_all_cases": "purified protein", "key": {"[1]": {"tested_on": "CC(C)(COP(=O)(O)OP(=O)(O)OC[C@H]1O[C@@H](n2cnc3c(N)ncnc32)[C@H](O)[C@@H]1OP(=O)(O)O)[C@@H](O)C(=O)NCCC(=O)NCCSC(=O)CCC(=O)O", "conditions": "co-substrate propionate 20 mM, 100 mM Tris-HCl pH 7.8, 5 mM MgCl2, 5 mM DTT, 55 °C"}, "[2]": {"tested_on": "CC(=O)SCCNC(=O)CCNC(=O)[C@H](O)C(C)(C)COP(=O)(O)OP(=O)(O)OC[C@H]1O[C@@H](n2cnc3c(N)ncnc32)[C@H](O)[C@@H]1OP(=O)(O)O", "conditions": "co-substrate succinate 40 mM, 100 mM Tris-HCl pH 7.8, 5 mM MgCl2, 5 mM DTT, 55 °C"}, "[3]": {"tested_on": "O=C(O)CCCO", "conditions": "co-substrate acetyl-CoA 1 mM, 100 mM Tris-HCl pH 7.8, 5 mM MgCl2, 5 mM DTT, 55 °C"}, "[4]": {"tested_on": "CCC(=O)O", "conditions": "co-substrate acetyl-CoA 2 mM, 100 mM Tris-HCl pH 7.8, 5 mM MgCl2, 5 mM DTT, 55 °C"}, "[5]": {"tested_on": "CCC(=O)SCCNC(=O)CCNC(=O)[C@H](O)C(C)(C)COP(=O)(O)OP(=O)(O)OC[C@H]1O[C@@H](n2cnc3c(N)ncnc32)[C@H](O)[C@@H]1OP(=O)(O)O", "conditions": "co-substrate acetate 20 mM, 100 mM Tris-HCl pH 7.8, 5 mM MgCl2, 5 mM DTT, 55 °C"}}, "data": [{"substance": "succinyl-CoA:acetate CoA-transferase encoded by the AHF96498 gene (AHF96498 gene product) (Desulfurella acetivorans A63)", "values": [{"measurement": "Km", "setting": "[1]", "value": "1200 ± 300", "unit": "µM"}, {"measurement": "kcat/Km", "setting": "[1]", "value": 14000, "unit": "M⁻¹ s⁻¹"}, {"measurement": "Km", "setting": "[2]", "value": "200 ± 40", "unit": "µM"}, {"measurement": "Vmax", "setting": "[2]", "value": 90, "unit": "µmol/min/mg"}, {"measurement": "kcat/Km", "setting": "[2]", "value": 534000, "unit": "M⁻¹ s⁻¹"}, {"measurement": "Km", "setting": "[3]", "value": "400 ± 100", "unit": "µM"}, {"measurement": "Vmax", "setting": "[3]", "value": 7.7, "unit": "µmol/min/mg"}, {"measurement": "kcat/Km", "setting": "[3]", "value": 24000, "unit": "M⁻¹ s⁻¹"}, {"measurement": "Km", "setting": "[4]", "value": "3900 ± 800", "unit": "µM"}, {"measurement": "Vmax", "setting": "[4]", "value": 875, "unit": "µmol/min/mg"}, {"measurement": "kcat/Km", "setting": "[4]", "value": 223000, "unit": "M⁻¹ s⁻¹"}, {"measurement": "Km", "setting": "[5]", "value": "1100 ± 300", "unit": "µM"}, {"measurement": "Vmax", "setting": "[5]", "value": 669, "unit": "µmol/min/mg"}, {"measurement": "kcat/Km", "setting": "[5]", "value": 584000, "unit": "M⁻¹ s⁻¹"}]}]}
